B1: Myc-tagged SIRT1-ΔExon8 (SIRT1 Δ8 tagged at the C-terminus with c-Myc and 6x His) (enzyme)
chain: ADEAALALQPGGSPSAAGADREAASSPAGEPLRKRPRRDGPGLERSPGEPGGAAPEREVPAAARGCPGAAAAALWREAEAEAAAAGGEQEAQATAAAGEGDNGPGLQGPSREPPLADNLYDEDDDDEGEEEEEAAAAAIGYRDNLLFGDEIITNGFHSCESDEEDRASHASSSDWTPRPRIGPYTFVQQHLMIGTDPRTILKDLLPETIPPPELDDMTLWQIVINILSEPPKRKKRKDINTIEDAVKLLQECKKIIVLTGAGVSVSCGIPDFRSRDGIYARLAVDFPDLPDPQAMFDIEYFRKDPRPFFKFAKEIYPGQFQPSLCHKFIALSDKEGKLLRNYTQNIDTLEQVAGIQRIIQCHGSFATASCLICKYKVDCEAVRGDIFNQVVPRCPRCPADEPLAIMKPEIVFFGENLPEQFHRAMKYDKDEVDLLIVIGSSLKVRPVALIPSNQYLFLPPNRYIFHGAEVYSDSEDDVLSSSSCGSNSDSGTCQSPSLEEPMEDESEIEEFYNGLEDEPDVPERAGGAGFGTDGDDQEAINEAISVKQEVTDMNYPSNKS
notes: Transiently expressed in HCT116 cells, about 95 kDa; Found phosphorylated at S27 and S47 in lysates; also called SIRT1-delta exon 8; SIRT1 D8; not shown: C-terminal c-Myc and 6x His tags
B3: SIRT1-FL (endogenous full length SIRT1) (enzyme, human, UniProt Q96EB6 1-747, looked up)
chain: MADEAALALQPGGSPSAAGADREAASSPAGEPLRKRPRRDGPGLERSPGEPGGAAPEREVPAAARGCPGAAAAALWREAEAEAAAAGGEQEAQATAAAGEGDNGPGLQGPSREPPLADNLYDEDDDDEGEEEEEAAAAAIGYRDNLLFGDEIITNGFHSCESDEEDRASHASSSDWTPRPRIGPYTFVQQHLMIGTDPRTILKDLLPETIPPPELDDMTLWQIVINILSEPPKRKKRKDINTIEDAVKLLQECKKIIVLTGAGVSVSCGIPDFRSRDGIYARLAVDFPDLPDPQAMFDIEYFRKDPRPFFKFAKEIYPGQFQPSLCHKFIALSDKEGKLLRNYTQNIDTLEQVAGIQRIIQCHGSFATASCLICKYKVDCEAVRGDIFNQVVPRCPRCPADEPLAIMKPEIVFFGENLPEQFHRAMKYDKDEVDLLIVIGSSLKVRPVALIPSSIPHEVPQILINREPLPHLHFDVELLGDCDVIINELCHRLGGEYAKLCCNPVKLSEITEKPPRTQKELAYLSELPPTPLHVSEDSSSPERTSPPDSSVIVTLLDQAAKSNDDLDVSESKGCMEEKPQEVQTSRNVESIAEQMENPDLKNVGSSTGEKNERTSVAGTVRKCWPNRVAKEQISRRLDGNQYLFLPPNRYIFHGAEVYSDSEDDVLSSSSCGSNSDSGTCQSPSLEEPMEDESEIEEFYNGLEDEPDVPERAGGAGFGTDGDDQEAINEAISVKQEVTDMNYPSNKS

What was measured:
[1] = molecular target: B3; test: immunoprecipitation with anti-c-Myc 9E10 from HCT116 lysates, Western blot with H300 anti-SIRT1
Procedure: (§1) SIRT1-ΔExon8 was exogenously expressed in HCT116 cells and immuno-precipitated. […] SIRT1-ΔExon8 and Flag-tagged AROS were exogenously expressed in HCT116 cells, and the Flag epitope was immuno-precipitated. In the eluate, AROS was detected by probing with an anti-AROS antibody (Methods), while the interaction with SIRT1-ΔExon8 was probed with anti-c-Myc antibody (9E10, Santa Cruz). C. […] SIRT1-ΔExon8 was exogenously expressed in HCT116 cells and cells were harvested 24 h post-transfection. Cell lysates were immuno-precipitated with anti-c-Myc antibody (9E10, Santa Cruz). Western-blotting was performed with a C-terminal anti-SIRT1 antibody (residues 448-747, H300, Santa Cruz) which detects both endogenous SIRT1-FL and SIRT1-ΔExon8 (see: FIG. 2a). * indicates a non-specific band;

[2] = molecular target: T1, DBC-1 (endogenous, HCT116 cells) (human, UniProt Q8N163 1-923); test: immunoprecipitation of exogenous SIRT1-ΔExon8 from HCT116 cells, eluate probed with anti-DBC-1
T1 construct: Endogenous protein in cell lysate, probed with anti-DBC-1; also called endogenous DBC-1
Procedure: as §1

[3] = molecular target: B1; test: pull-down / co-immunoprecipitation from HCT116 cells
Procedure: as §1

[4] = molecular target: T2, p53 (endogenous, HCT116 p53+/+ cells) (human, UniProt P04637 1-393); test: cell-based or functional assay
[5] = molecular target: T2, p53 (endogenous, HCT116 p53+/+ cells); test: immunoprecipitation of exogenous SIRT1 Δ2-9 with His antibody, blotted with p53 antibody

T2 sequence (P04637 whole entry): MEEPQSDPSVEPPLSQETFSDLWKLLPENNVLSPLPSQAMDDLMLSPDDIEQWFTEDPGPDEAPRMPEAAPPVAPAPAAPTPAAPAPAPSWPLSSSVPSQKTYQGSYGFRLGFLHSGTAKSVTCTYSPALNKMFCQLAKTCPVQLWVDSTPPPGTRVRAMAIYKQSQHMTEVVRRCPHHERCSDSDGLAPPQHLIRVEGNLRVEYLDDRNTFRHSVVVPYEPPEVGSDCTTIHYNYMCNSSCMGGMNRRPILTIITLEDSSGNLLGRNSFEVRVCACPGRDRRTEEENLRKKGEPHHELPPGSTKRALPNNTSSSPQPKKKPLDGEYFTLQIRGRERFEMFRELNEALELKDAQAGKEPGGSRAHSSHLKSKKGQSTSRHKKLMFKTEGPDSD
T1 sequence (Q8N163 whole entry): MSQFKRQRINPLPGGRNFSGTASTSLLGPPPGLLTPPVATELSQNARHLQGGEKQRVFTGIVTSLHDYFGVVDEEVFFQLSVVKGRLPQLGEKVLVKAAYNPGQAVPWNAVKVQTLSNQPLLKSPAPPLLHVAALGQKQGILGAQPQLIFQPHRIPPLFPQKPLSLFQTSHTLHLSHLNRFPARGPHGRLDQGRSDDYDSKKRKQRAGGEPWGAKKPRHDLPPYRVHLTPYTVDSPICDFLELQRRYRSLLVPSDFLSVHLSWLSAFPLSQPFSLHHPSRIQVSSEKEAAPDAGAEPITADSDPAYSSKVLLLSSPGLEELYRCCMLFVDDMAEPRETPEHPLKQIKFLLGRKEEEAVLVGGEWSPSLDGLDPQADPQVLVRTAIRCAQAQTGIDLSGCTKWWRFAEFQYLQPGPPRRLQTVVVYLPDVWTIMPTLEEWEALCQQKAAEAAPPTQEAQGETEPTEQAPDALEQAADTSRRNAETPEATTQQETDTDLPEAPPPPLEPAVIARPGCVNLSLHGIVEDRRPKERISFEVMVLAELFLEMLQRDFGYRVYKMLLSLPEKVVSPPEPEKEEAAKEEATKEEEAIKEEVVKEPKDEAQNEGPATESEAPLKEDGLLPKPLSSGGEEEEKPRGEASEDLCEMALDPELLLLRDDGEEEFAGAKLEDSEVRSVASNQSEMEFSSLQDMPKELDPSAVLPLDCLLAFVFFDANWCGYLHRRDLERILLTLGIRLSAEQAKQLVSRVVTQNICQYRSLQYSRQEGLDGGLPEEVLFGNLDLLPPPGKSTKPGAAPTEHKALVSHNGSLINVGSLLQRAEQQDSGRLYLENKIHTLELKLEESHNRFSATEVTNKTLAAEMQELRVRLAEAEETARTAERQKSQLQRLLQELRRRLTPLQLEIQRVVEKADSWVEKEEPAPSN

B1
binding result [1]: no binding | binding result [2]: no binding

B2: Flag-tagged AROS (other, UniProt Q86WX3 1-136, looked up, not shown: small tags and cut ends)
chain: MSAALLRRGLELLAASEAPRDPPGQAKPRGAPVKRPRKTKAIQAQKLRNSAKGKVPKSALDEYRKRECRDHLRVNLKFLTRTRSTVAESVSQQILRQNRGRKACDRPVAKTKKKKAEGTVFTEEDFQKFQQEYFGS
notes: its order in the chain is arbitrary
binding result [3]: binds

B3
p53 acetylation levels following SIRT1 FL depletion (siRNA) under basal conditions in HCT116 cells, immunoblot [4]: > 50 fold

B4: Myc-His-SIRT1 Δ2-9 (MH-SIRT1 Δ2-9) (other, not shown: small tags and cut ends)
chain: MADEAALALQPGGSPSAAGADREAASSPAGEPLRKRPRRDGPGLERSPGEPGGAAPEREVPAAARGCPGAAAAALWREAEAEAAAAGGEQEAQATAAAGEGDNGPGLQGPSREPPLADNLYDEDDDDEGEEEEEAAAAAIGYRDNLLFVLVAVTVIVGHARVQV
notes: Expressed in HCT116 p53+/+ cells from pcDNA3.1; Serine 47 found phosphorylated; also called exogenous SIRT1 Δ2-9
binding result [5]: binds

— patent publication US20120178796A1 (published 2012)
